# Data taken from paper PMC8092134, “Cryptic β-Lactamase Evolution Is Driven by Low β-Lactam Concentrations” (mSphere, 2021).
# Target: the molecule itself
# Assay: crystal structure; hanging drop, 5 mg/ml enzyme, 0.1 M Tris pH 9.0, 28 to 30% PEG mono ethylene ether 500, 4°C; soaked with ceftazidime; space group P2(1)2(1)2(1), four chains in the asymmetric unit
protein,measurement,value
"OXA-48 variant L67F (enzyme, carboxylated lysine at K73, point mutation L67F made by site-directed mutagenesis; Crystals were soaked with ceftazidime; chains C and D carry a hydrolysed ceftazidime molecule; also called OXA-48 L67F; source: E. coli BL21 AI (pDEST17), purified) KEWQENKSWNAHFTEHKSQGVVVLWNENKQQGFTNNLKRANQAFFPASTFKIPNSLIALDLGVVKDEHQVFKWDGQTRDIATWNRDHNLITAMKYSVVPVYQEFARQIGEARMSKMLHAFDYGNEDISGNVDSFWLDGGIRISATEQISFLRKLYHNKLHVSERSQRIVKQAMLTEANGDYIIRAKTGYSTRIEPKIGWWVGWVELDDNVWFFAMNMDMPTSDGLGLRQAITKEVLKQEKIIP",stoichiometry N,2
